# Assay results as given in publication PMC11309785.
# Columns and labels:
# Assay in all cases: SPR; ProteOn XPR36, HC30M chip; IgG captured at low density (about 50 to 100 RU) by anti-human IgG (Fc) antibody, trimer flowed as analyte, highest concentration 3 µM; 1x HBS-EP+ pH 7.4 with BSA 1 mg/ml
# [1] = target: BG18 inferred germline IgG, Asp at the (D3-3)+2 position (human)
# [2] = target: BG18 inferred germline IgG, Glu at the (D3-3)+2 position (human)
# [3] = target: BG18 inferred germline IgG, Gly at the (D3-3)+2 position (human)
# Sequence of BG18 inferred germline IgG, Gly at the (D3-3)+2 position (human) (heavy, as listed by the source, chain 1 of 2): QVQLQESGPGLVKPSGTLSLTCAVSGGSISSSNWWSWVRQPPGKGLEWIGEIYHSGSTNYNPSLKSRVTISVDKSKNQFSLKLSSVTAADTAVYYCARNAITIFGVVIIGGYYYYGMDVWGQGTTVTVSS
# Sequence of BG18 inferred germline IgG, Gly at the (D3-3)+2 position (human) (light, as listed by the source, chain 2 of 2): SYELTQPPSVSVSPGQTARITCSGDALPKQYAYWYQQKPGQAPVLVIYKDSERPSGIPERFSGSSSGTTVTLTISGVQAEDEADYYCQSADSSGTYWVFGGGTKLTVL
# Sequence of BG18 inferred germline IgG, Glu at the (D3-3)+2 position (human) (heavy, as listed by the source, chain 1 of 2): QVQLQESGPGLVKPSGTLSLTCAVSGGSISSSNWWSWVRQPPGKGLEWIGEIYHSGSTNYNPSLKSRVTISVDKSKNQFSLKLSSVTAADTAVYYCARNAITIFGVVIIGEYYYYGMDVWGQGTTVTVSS
# Sequence of BG18 inferred germline IgG, Glu at the (D3-3)+2 position (human) (light, as listed by the source, chain 2 of 2): as the sequence (light, as listed by the source, chain 2 of 2) above
# Sequence of BG18 inferred germline IgG, Asp at the (D3-3)+2 position (human) (heavy, as listed by the source, chain 1 of 2): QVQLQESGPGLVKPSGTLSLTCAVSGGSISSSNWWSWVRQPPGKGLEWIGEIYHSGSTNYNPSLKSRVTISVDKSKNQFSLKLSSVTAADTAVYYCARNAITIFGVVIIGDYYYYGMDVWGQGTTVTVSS
# Sequence of BG18 inferred germline IgG, Asp at the (D3-3)+2 position (human) (light, as listed by the source, chain 2 of 2): as the sequence (light, as listed by the source, chain 2 of 2) above
substance,measurement,setting,value
N332-GT5 trimer (BG505_MD65_congly_N332-GT5),Kd,[1],39 nM
same,Kd,[2],0.7 nM
same,Kd,[3],1790 nM
